Test results reported in US20090227489A1, “STAT3 Agonists and Antagonists and Therapeutic Uses Thereof” (Johns Hopkins University, priority 2000, published 2009).

Key:
[1] = system: B16 tumors; assay: Stat3β gene therapy of established B16 tumors in mice; assay type: in vivo; conditions: for tumor growth: ten to fifteen percent of tumor cells transfected in vivo
Method: Mice. Six- to eight-week old female C57/B6 mice were obtained from the National Cancer Institute (Frederick, Md.). Cohorts of 3-5 mice per group were used for these experiments. To induce tumor, mice were shaved on the left flank and injected s.c. with 5×10^5 of B16 cells in 100 μl of PBS. Gene therapy with Stat3β of established B16 tumors was described previously [Niu, 1999 #72].
Antibody staining of iNOS in B16 tumors. 3 μm paraffin sections were deparaffinized and endogenous peroxidase was blocked with 3% aqueous hydrogen peroxide. To minimize non-specific binding, the sections were incubated for 20 min in normal goat serum in PBS, followed by overnight incubation at 4° C. with rabbit anti-iNOS polyclonal antibody (Transduction Laboratories). After washing with PBS, sections were incubated for 2 min with diaminobenzidine tetrahydrochloride, rinsed with tap water and counterstained with modified Mayer's hematoxylin. Sections were dehydrated, cleared and mounted. Peritoneal macrophages and neutrophils.
Tissue sections from control vector-treated and Stat3β-treated tumors were stained with H&E and anti-iNOS antibodies.

[2] = system: VEGF; assay: Expression of the endogeneous VEGF gene in B16 tumor cells (Western blot); assay type: cell-based, murine; conditions: ASO at 100 nM, 200 nM, or 300 nM
Method: FIG. 13. Inhibition of Stat3 signaling in tumor cells reduces the expression of the endogeneous VEGF gene. B16 tumor cells were transfected with either: A. Stat3β; or B. Stat3 anti-sense oligonucleotides (ASO) at 100 nM, 200 nM, or 300 nM.
(§1) A plasmid construct containing the luciferase cDNA in the absence of the VEGF promoter was also transfected into 3T3 fibroblasts. Both of B16 and SCK tumor cells harbor constitutively activated Stat3. In the absence of Stat3β, VEGF promoter activity was readily detectable in both tumor cells as indicated by the high expression levels of luciferase protein. […] The inhibitory effect of Stat3β on the transcriptional activity of the VEGF promoter was also observed in the tumor cells transfected with Stat3 anti-sense oligonucleotides (FIG. 12A-B). It was also shown that blocking Stat3 signaling in tumor cells inhibits the expression of the endogeneous VEGF gene. B16 tumor cells were transiently transfected with Stat3β and the expression of endogeneous VEGF gene was determined at the RNA and protein levels.

[3] = system: TRAIL; assay: RNase protection assay with multi-template probes for regulators of apoptosis; assay type: cell-based, murine; conditions: B16 cells, thirty hours after transfection
Method: FIG. 4. Stat3β overexpression in B16 cells results in induction of TRAIL mRNA expression. Ten μg of total cellular RNAs isolated from B16 (lanes 1 and 4), and B16 transfected with either pIRES-EGFP (lanes 2 and 5) or pIRES-Stat3β (lanes 3 and 6) were hybridized with each multiple probe before digestion with RNase. Separation of protected fragments was achieved by gel electrophoresis. Fragment assignment was determined by migration relative to internal standards. Induction of TRAIL RNA was confirmed by two additional RPA analyses.
RNA isolation and RNase protection assay. Total RNA was isolated from 5.0×10^6 cells by TRIzol reagent (Gibco BRL, Grand Island, N.Y.). RNase protection assays (RPA) were carried out using the PharMingen Riboquant mAPO-3 (TRAIL, FasL, CD95, and other death receptor associated genes) and mAPO-2 (Bcl-2 family members) multi-probe templates according to the manufacturer's protocol (PharMingen, San Diego, Calif.). Briefly, the multi-probe template was synthesized by in vitro transcription with incorporation of [^32P]-α UTP and purified on a G50 Sephadex column (5-Prime to 3-Prime, Boulder, Colo.). Specific activity was quantitated in a Beckman LS 6500 scintillation counter (Beckman, Schaumburg, Ill.). […] Protected RNA fragments were separated on a 5% polyacrylamide denaturing gel and quantified with Image Quant software (Molecular Dynamics, Sunnyvale, Calif.). […]

[4] = system: B16 cells; assay: Cell cycle analysis by propidium iodide staining and FACS; assay type: cell-based, murine; conditions: transfected B16 cells, from 24 hours post transfection
Method: Cell cycle analysis. Cell cycle analysis based on DNA content was performed. Cells were harvested, washed twice in PBS and resuspended in 70% ethanol on ice for at least 30 min. After centrifugation, cells were resuspended in 1 ml of propidium iodide staining solution (50 μg propidium iodide, 1 mg RNase A and 1 mg glucose per ml PBS) and incubated at room temperature for 30 min. The cells were analyzed by FACS using ModFit LT cell cycle analysis software (Verity Software, Topsham, Me.). Cells transfected with vectors encoding EGFP were fixed in 1 ml of 0.5% formaldehyde on ice for 10 min. before adding 70% ethanol.
This G0/G1 phase arrest was observed as early as 24 hourspost transfection. At 48 hours post transfection with Stat3β vector, Annexin V-PE staining followed by FACS analysis to detect apoptotic activity was performed with transfected B16 cells. A high level of apoptosis in Stat3β transfected cells (75%) relative to empty vector transfected cells (25%) was observed, as shown in FIG. 2C. Increased levels of apoptosis as a result of Stat3β transfection was confirmed by confocal laser scanning microscope analysis using rhodamine-labelled TUNEL assay.

[5] = system: peritoneal macrophages and lymphocytes; assay: Mice injected with transfected B16 cells: macrophage NO production and lymphocyte IFN-γ ELISPOT; assay type: in vivo; conditions: transfected B16 cells injected into mice
Method: FIG. 9A-B. Expression of Stat3β in tumor cells leads to activation of macrophages and T lymphocytes in vivo. Mice were injected with B16 cells (2×10^6/mouse) transfected with either GFP or Stat3β expression vectors. Five days later, peritoneal macrophages and lymphocytes were tested for NO production and IFN-γ production, respectively. A. NO production by peritoneal macrophages. B. IFN-γ ELISPOT of lymphocytes.
In addition to direct tumoricidal effect shown herein with production of NO by macrophages, innate immunity critically impacts the development of adaptive immune responses. […] Furthermore, a four-fold increase in IFN-γ production by lymphocytes derived from mice injected with Stat3β-transfected B16 cells was also detected (FIG. 9B).

[6] = system: U266 cells; conditions: cited from earlier work
[7] = system: VEGF promoter; assay: VEGF promoter luciferase reporter in B16 and SCK tumor cells; assay type: cell-based; conditions: B16 and SCK murine tumor cells, co-transfection
Description: FIG. 12A-B. Blocking Stat3 signaling in tumor cells inhibits VEGF promoter activity. Both B16 (A) and SCK (B) murine tumor cells were transfected with constructs containing the luciferase cDNA in the absence (pluc) or presence of the VEGF promoter (VEGF).
as §1

B1: Stat3β: dominant-negative Stat3 variant, truncated form lacking the transactivation domain; delivered by the pIRES-Stat3β expression vector (protein)
chain: AQWNQLQQLDTRYLEQLHQLYSDSFPMELRQFLAPWIESQDWAYAASKESHATLVFHNLLGEIDQQYSRFLQESNVLYQHNLRRIKQFLQSRYLEKPMEIARIVARCLWEESRLLQTAATAAQQGGQANHPTAAVVTEKQQMLEQHLQDVRKRVQDLEQKMKVVENLQDDFDFNYKTLKSQGDMQDLNGNNQSVTRQKMQQLEQMLTALDQMRRSIVSELAGLLSAMEYVQKTLTDEELADWKRRQQIACIGGPPNICLDRLENWITSLAESQLQTRQQIKKLEELQQKVSYKGDPIVQHRPMLEERIVELFRNLMKSAFVVERQPCMPMHPDRPLVIKTGVQFTTKVRLLVKFPELNYQLKIKVCIDKDSGDVAALRGSRKFNILGTNTKVMNMEESNNGSLSAEFKHLTLREQRCGNGGRANCDASLIVTEELHLITFETEVYHQGLKIDLETHSLPVVVISNICQMPNAWASILWYNMLTNNPKNVNFFTKPPIGTWDQVAEVLSWQFSSTTKRGLSIEQLTTLAEKLLGPGVNYSGCQITWAKFCKENMAGKGFSFWVWLDNIIDLVKKYILALWNEGYIMGFISKERERAILSTKPPGTFLLRFSESSKEGGVTFTWVEKDISGKTQIQSVEPYTKQQLNNMSFAEIIMGYKIMDATNILVSPLVYLYPDIPKEEAFGKYCRPESQEHPEADPGAAPYLKTKFICVTFIDAVWK
- apoptosis of tumor cells in vivo ([1]; B16 tumors): massive apoptosis of B16 tumor cells
- tumor growth ([1]; B16 tumors): complete regression of tumors
- tumor growth ([1]; B16 tumors, listed as Stat30): inhibition of tumor growth and tumor regression
- infiltration of inflammatory cells (neutrophils, macrophages, T cells) ([1]; H&E staining, vs control vector-treated tumors): dramatic increase in number of inflammatory cells
- iNOS expression in tumor-infiltrating macrophages ([1]; anti-iNOS antibody staining): induction of iNOS gene expression in the tumor-infiltrating macrophages
- expression of the endogeneous VEGF gene [2]: downregulates expression of the endogeneous VEGF gene
- TRAIL RNA expression [3]: induction of TRAIL RNA expression
- cell cycle distribution [4]: progressive accumulation in G0/G1 phase
- increase in IFN-γ production by lymphocytes ([5]; ELISPOT): four-fold
- NO production by peritoneal macrophages ([5]; five days later): clear induction of NO production
- expression of the Bcl-XL gene [6]: down-regulated expression of the Stat3-regulated Bcl-XL gene
- sensitization to Fas-mediated apoptosis ([6]; in vitro): dramatic sensitization of cells to Fas-mediated apoptosis
- transcriptional activity of the VEGF promoter (luciferase) [7]: greatly inhibited
